Results on 7 molecules are retold here after patent publication US20160340442A1 (Dana-Farber, published 2016).

Experiment [1] has as its target T1, cell surface MUC1-C protein (human, UniProt P15941 1098-1255).
T1 construct: MUC1-C subunit as carried by MUC1-positive cell lines and patient cells (or in their lysates for Western blot); also called MUC1 C-ter; MUC1 on MUC1-positive cells
T1 sequence: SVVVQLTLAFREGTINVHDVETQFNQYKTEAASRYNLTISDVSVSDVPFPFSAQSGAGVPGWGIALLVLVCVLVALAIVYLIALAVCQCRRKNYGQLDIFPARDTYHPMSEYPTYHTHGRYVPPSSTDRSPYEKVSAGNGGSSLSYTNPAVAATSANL
In words: surface staining, flow cytometry, KU812 CML cells; 2 µg antibody/sample. (In general: Flow cytometry measures light scatter and fluorescence of single cells or particles in a stream.)

Experiment [2] deals with T1, cell surface MUC1-C protein. In words: surface staining, flow cytometry, K562 CML cells; 2 µg antibody/sample.
Experiment [3] has the same target. In words: surface staining, flow cytometry, ZR-75-1 cells (third row); 2 µg antibody/sample.
Experiment [4] has the same target. Briefly: surface staining, flow cytometry, K562 CTL-siRNA cells; 2 µg antibody/sample; fixed samples kept at 4° C. for 4 days.
The target is the same in experiment [5]. Briefly: surface staining, flow cytometry, K562 MUC1-siRNA cells (MUC1 silenced); 2 µg antibody/sample.
The target in another experiment is T2, P3 (human).
T2 construct: Synthetic overlapping peptide of MUC1-C/ECD; also called peptide P3
T2 peptide: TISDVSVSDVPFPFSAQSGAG
In words: ELISA, peptide as competitor (indirect: peptide did not inhibit binding to the antigen).

The next experiment has as its target T3, P1 (human).
T3 construct: Synthetic overlapping peptide of MUC1-C/ECD; also called peptide P1
T3 peptide: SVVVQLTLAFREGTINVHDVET
Described as above.

The target of another experiment is T4, P2 (human).
T4 construct: Synthetic overlapping peptide of MUC1-C/ECD; also called peptide P2
T4 peptide: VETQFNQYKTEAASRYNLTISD
Described as above.

Experiment [6] deals with T5, MUC1-C/ECD protein (human, UniProt P15941 1098-1155).
T5 construct: also called MUC1-C/ECD antigen; the antigen
T5 sequence: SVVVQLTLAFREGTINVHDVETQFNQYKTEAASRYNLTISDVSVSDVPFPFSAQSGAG
In words: ELISA, plates coated with the antigen, multiple antibody concentrations. As for the experimental part:
FIG. 38. ELISA assays were performed by coating plates with the antigen and reactivity with multiple different concentrations of purified antibodies 7B8, 4G5 and 2B11.

The target of experiment [7] is T1, cell surface MUC1-C protein. In words: flow cytometry, ZR-75-1, MCF-7 and HCT-116/MUC1 cells. An excerpt:
FIG. 35. […] Reactivity was detected by immunofluorescence FACScan.
FIG. 36. […] Reactivity was detected by immunofluorescence FACScan.

For experiment [8] the target is unchanged. In words: cell-based or functional assay.
The target of a further experiment is T6, MUC1-CQC→AQA mutant (human, UniProt P15941 1098-1255).
T6 construct: also called HCT116/MUC1-CQC→AQA mutant cells
T6 chain: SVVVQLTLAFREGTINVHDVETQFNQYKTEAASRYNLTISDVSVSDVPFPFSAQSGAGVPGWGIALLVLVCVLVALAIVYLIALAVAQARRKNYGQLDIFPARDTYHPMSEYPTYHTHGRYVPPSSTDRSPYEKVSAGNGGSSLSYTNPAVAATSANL
Briefly: flow cytometry, HCT116/MUC1-CQC→AQA mutant cells. The procedure: FIG. 37. HCT116/MUC1-wild-type and HCT116/MUC1-CQC→AQA mutant cells 7B8 for 30 min, washed, incubated with goat anti-mouse immunoglobulin-flourescein-conjugated antibody (Santa Cruz Biotechnology), and fixed in 1% formaldehyde/PBS. Reactivity was detected by immunofluorescence FACScan.

The target of experiment [9] is T1, cell surface MUC1-C protein. In words: flow cytometry, ZR-75-1 cells, competitive format with purified MUC1-C/ECD protein; 7B8 binding not abrogated. The procedure:
Characterized of 7B8 and 3D1 antibodies. Linear epitope mapping of 7B8 and 3D1 clones was performed using three overlapping peptides spanning the entire MUC1-C/ECD region (58 amino acids) were synthesized. ELISA assays were performed using 7B8 or 3D1 purified antibodies in the presence or absence of P1, P2 or P3 peptides. […] Conformational epitope mapping of 7B8 and 3D1 was performed using eight critical individual point mutants in the MUC1-C/ECD region by ELISA. […] These findings indicate that D19 is a part of the conformational core/pocket for 3D1 binding. ZR-75-1 breast carcinoma cells were used determine 7B8 or 3D1 antibody binding in a competitive format with MUC1-C/ECD and analyzed by FLOW. […] These findings indicate that the conformational binding epitopes of 7B8 and 3D1 are different. The sequencing results for hybridoma 3D1 is shown in FIG. 50 and is discussed in greater detail below.

For experiment [10], the target named is T5, MUC1-C/ECD protein. Briefly: ELISA, plates coated with the MUC1-C/ECD antigen. A general note: In an ELISA, binding on a coated surface is turned into a signal by an enzyme label.

B1: 315.1.6A6.C11.G5 (antibody, V domains shown)
VH: QVQLKESGPGLVAPSQSLSMTCTVSGFSLTTYGVHWVRQPPGKGLEWLVVIWSDGSTTYNSPLKSRLSISRDNSKSQVFLKMNSLQADDTAIYYCAKNYLGSLDYWGQGTSVTVSS
VL: DVVLTQTPLSLPVSLGDQASISCRSSQSLVHNNGDTYLHWYLQKPGQSPKLLIYKVSNRFSGVPDRFSGSGSGTDFTFKISRVEAEDLGVYFCSQTTHVPLTFGAGTKLELK
notes: also called MAb 6A6; Clone 6A6
Consider B1, for which the “flow cytometry value (unit not given)” value in experiment [1] is 31.6; in experiment [2], 9.31; in [3], 2.16; in experiment [4], 22.6; in experiment [5], 6.26.

B2: 315.2.8E1.F7.C3.H7.H8.F5 (antibody, V domains shown)
VH: EVQLVESGGGLVQPGESLKLSCESNEYEFPSHDMSWVRKTPEKRLELVAAINSDGGSTYYPDTMERRFIISRDNTKKTLYLQMSSLRSEDTALYYCVRLYYGNVMDYWGQGTSVTVSS
VL: DVVMTQTPLSLPVSLGDQASISCRSSQSLVHSNGNTYLYWYLQKPGQSPKLLIYKVSNRFSGVPDRFSGSGSGTDFTLKISRVEAEDLGVYFCSQSTHVPLTFGAGTKLELK
notes: also called MAb 8E1; Clone 8E1
For the molecule B2, the “flow cytometry value (unit not given)” value was 39.6 in experiment [1]; 8.65 in experiment [2]; 1.61 in [3]; 22.4 in experiment [4]; 6.91 in experiment [5].

B3: 315.2.8F1.D2.D1 (antibody, V domains shown)
VH: EVQLVESGGGLVQPGESLKLSCESNEYEFPSHDMSWVRKTPEKRLELVAAINSDGGSTYYPDTMERRFIISRDNTKKTLYLQMSSLRSEDTALYYCVRLYYGNVMDYWGQGTSVTVSS
VL: DVVMTQTPLSLPVSLGDQASISCRSSQSLVHSNGNTYLYWYLQKPGQSPKLLIYKVSNRFSGVPDRFSGSGSGTDFTLKISRVEAEDLGVYFCSQSTHVPLTFGAGTKLELK
notes: also called Clone 8F1; P58-8F1
In the case of B3, the “flow cytometry value (unit not given)” value in experiment [1] was 39.9; in experiment [2] it was 9.58; in experiment [3], 1.57; in [4], 34.4; in experiment [5], 6.37.

B4: 400.6.4G5.E11.G2 (antibody, IgG1, V domains shown)
VH: QITLKESGPGILQPSQTLSLTCSFSGFSLSTSGMGVSWIRQPSGKGLEWLSHIYWDDDKRYNPSLKSRLSISKDTSRNQVFLKITSVDTADTATYYCAPGVSSWFPYWGPGTLVTVSA
VL: SIVMTQTPKFLPVSAGDRVTVTCKASQSVGNYVAWYQQKPGQSPKLLIYFASNRYSGVPDRFTGSGSGTDFTFTISSVQVEDLAVYFCQQHYIFPYTFGSGTKLEIK
Take B4: the binding result with P3 is “no binding”; in the experiment with P1, “no binding”; with P2, “no binding”; with MUC1-C/ECD protein [6], “binds”; in experiment [7], “binds”.

B5: 400.6.2B11.D5.F6 (antibody, IgG1, V domains shown)
VH: QVQLQQSGAELMKPGASVKISCKAIGFTFNYFWIEWVKQRPGHGLEWIGEILPGTGSTNYNEKFKGKAIFTADTSSNTAYMQLRSLTSEDSAVYYCVRYDYTSSMDYWGQGTSVTVSS
VL: NIVMTQSPKSMSMSVGERVTLTCKASENVGTYVSWYQQKPEQSPKLLIYGASNRYTGVPNRFTGSGSATDFTLTISSVQAEDLADYYCGQSYSYPWTFGGGTKLEIK
In the case of B5, the binding result with P3 is on record as “no binding”; with P1, “no binding”; in the experiment with P2, “no binding”; with MUC1-C/ECD protein [6] it was “binds”; in experiment [7] it was “binds”.

B6: 7B8-MMAF (other)
VH: QVQLQQPGAELVKPGASEKLSCKASGHTFTSYWMHWVKQRPGQGLEWIGEINPSNGRTYYNENFKTKATLTVDKYSSSASMQLRSLTSEDSAVYYCASDGDYVSGFAYWGQGTTLTVSS
VL: DIVLTQSPGSLAVSLGQSVTISCRASESVQYSGTSLMHWYQQKPGQPPKLLIYGASNVETGVPARFSGSGSGTDFSLNIHPVEEDDIAMYFCQQNWKVPWTFGGGTKLEIK
modifications: monomethyl auristatin F (MMAF) via cleavable linker valine-citrulline-p-aminobenzyl (Val-Cit-PAB); attachment residues not stated
B6: the “dose-dependent inhibition of proliferation in ZR-75-1 breast carcinoma cells, IC50” value in experiment [8] is about 0.86 nM.

B7: 400.6.7B8.G3.G1 (antibody, IgG2a, V domains shown)
VH: QVQLQQPGAELVKPGASEKLSCKASGHTFTSYWMHWVKQRPGQGLEWIGEINPSNGRTYYNENFKTKATLTVDKYSSSASMQLRSLTSEDSAVYYCASDGDYVSGFAYWGQGTTLTVSS
VL: DIVLTQSPGSLAVSLGQSVTISCRASESVQYSGTSLMHWYQQKPGQPPKLLIYGASNVETGVPARFSGSGSGTDFSLNIHPVEEDDIAMYFCQQNWKVPWTFGGGTKLEIK
Consider B7, for which the binding result with MUC1-CQC→AQA mutant was “binds”; in experiment [9], “binds”; with MUC1-C/ECD protein [10], “binds”; with P3 it was “no binding”; in the experiment with P1, “no binding”; in the experiment with P2, “no binding”.
